# From publication PMC10801562 (Antibodies, 2024)
# T1: recombinant human CD3ε-CD3δ heterodimeric protein (CD3εδ) (Homo sapiens)
# T1 construct: human CD3ε of the recombinant CD3εδ heterodimer; human CD3δ of the recombinant CD3εδ heterodimer; source: in-house prepared
# T1 chain 1: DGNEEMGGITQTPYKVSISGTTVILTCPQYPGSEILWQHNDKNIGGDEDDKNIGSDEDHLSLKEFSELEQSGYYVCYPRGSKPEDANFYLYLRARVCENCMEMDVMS
# T1 chain 2: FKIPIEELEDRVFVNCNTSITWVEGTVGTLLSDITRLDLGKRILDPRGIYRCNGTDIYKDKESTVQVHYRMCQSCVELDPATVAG
# Molecular target: T1, recombinant human CD3ε-CD3δ …
# Test: SPR; Biacore T200, 37 °C, pH 7.4, PB-P+; antibody captured (630 RU) by anti-mouse IgG (Fc) antibody on a CM4 chip; human CD3εδ as analyte, 1.2-4800 nmol/L; 1:1 binding model (mUCHT1, mSP34)
# Conditions: both partners purified
row,Binder,Kd [nM]
1,"mUCHT1 mIgG1 V1+C19, homodimeric antibody with FAST-Ig V1+C19 mutations (antibody, V domains shown, VH of mUCHT1; mouse IgG1 (mIgG1) heavy chain constant region; numbers count on: Eu numbering; VL of mUCHT1; mouse kappa light chain constant region (CL); numbers count on: Kabat numbering; Whole IgG of one HC and one LC; also called anti-CD3; H2L2H2L2; source: Expi293F, transiently expressed, purified (Ab-Capcher MAG2 or MonoSpin ProG); copies: 2 + 2) VH: EVQLQQSGPELVKPGASMKISCKASGYSFTGYTMNWVKESHGKNLEWMGLINPYKGVSTYNQKFKDKATLTVDKSSSTAYMELLSLTSEDSAVYYCARSGYYGDSDWYFDVWGQGTTLTVFS VL: DIQMTQTTSSLSASLGDRVTISCRASQDIRNYLNWYQKKPDGTVKLLIYYTSRLHSGVPSKFSGSGSGTDYSLTISNLEQEDIATYFCQQGNTLPWTFAGGTKLEIK",1.32
2,"mSP34 mIgG1 V1+C19, homodimeric antibody with FAST-Ig V1+C19 mutations (antibody, V domains shown, VH of mSP34; mouse IgG1 (mIgG1) heavy chain constant region; numbers count on: Eu numbering; VL (lambda) of mSP34; mouse lambda light chain constant region (CL); numbers count on: Kabat numbering; Whole IgG of one HC and one LC; also called anti-CD3; H2L2H2L2; source: Expi293F, transiently expressed, purified (Ab-Capcher MAG2 or MonoSpin ProG); copies: 2 + 2) VH: EVQLVESGGGLVQPKGSLKLSCAASGFTFNTYAMNWVREAPGKGLEWVARIRSKYNNYATYYADSVKDRFTISRDDSQSILYLQMNNLKTEDTAMYYCVRHGNFGNSYVSWFAYWGQGTLVTVSA VL: QAVVTQESALTTSPGETVTLTCRSSTGAVTTSNYANWVQKKPDHLFTGLIGGTNKRAPGVPARFSGSLIGDKAALTITGAQTEDEAIYFCALWYSNLWVFGGGTKLTVL",56.9

# Molecular target: T1, recombinant human CD3ε-CD3δ …
# Test: SPR; Biacore T200, 37 °C, pH 7.4, PB-P+; antibody captured (630 RU) by anti-mouse IgG (Fc) antibody on a CM4 chip; human CD3εδ as analyte, 18.8-19,200 nmol/L (mHIT3a, mOKT3) or 75-76,800 nmol/L (m12F6); steady state model
# Conditions: both partners purified
row,Binder,Kd [µM]
1,"m12F6 mIgG1 V1+C19, homodimeric antibody with FAST-Ig V1+C19 mutations (antibody, V domains shown, VH of m12F6; mouse IgG1 (mIgG1) heavy chain constant region; numbers count on: Eu numbering; VL of m12F6; mouse kappa light chain constant region (CL); numbers count on: Kabat numbering; Whole IgG of one HC and one LC; also called anti-CD3; H2L2H2L2; source: Expi293F, transiently expressed, purified (Ab-Capcher MAG2 or MonoSpin ProG); copies: 2 + 2) VH: QVQLQQSGAELARPGASVKMSCKASGYTFTSYTMHWVKERPGQGLEWIGYINPSSGYTKYNQKFKDKATLTADKSSSTAYMQLSSLTSEDSAVYYCARWQDYDVYFDYWGQGTTLTVSS VL: QIVLSQSPAILSASPGEKVTMTCRASSSVSYMHWYQKKPGSSPKPWIYATSNLASGVPARFSGSGSGTSYSLTISRVEAEDAATYYCQQWSSNPPTFGGGTKLETK",16.1
2,"m12F6 mIgG2a V1+C19, homodimeric antibody with FAST-Ig V1+C19 mutations (antibody, V domains shown, VH of m12F6; mouse IgG2a (mIgG2a) heavy chain constant region; numbers count on: Eu numbering; VL of m12F6; mouse kappa light chain constant region (CL); numbers count on: Kabat numbering; Whole IgG of one HC and one LC; also called anti-CD3; H2L2H2L2; source: Expi293F, transiently expressed, purified (Ab-Capcher MAG2, MonoSpin ProA or MonoSpin ProG); copies: 2 + 2) VH: QVQLQQSGAELARPGASVKMSCKASGYTFTSYTMHWVKERPGQGLEWIGYINPSSGYTKYNQKFKDKATLTADKSSSTAYMQLSSLTSEDSAVYYCARWQDYDVYFDYWGQGTTLTVSS VL: QIVLSQSPAILSASPGEKVTMTCRASSSVSYMHWYQKKPGSSPKPWIYATSNLASGVPARFSGSGSGTSYSLTISRVEAEDAATYYCQQWSSNPPTFGGGTKLETK",16.4
3,"m12F6 mIgG2a, homodimeric antibody without FAST-Ig mutations (antibody, V domains shown, VH of the original mouse antibody m12F6; mouse IgG2a (mIgG2a) heavy chain constant region; numbers count on: Eu numbering; VL of the original mouse antibody m12F6; mouse kappa light chain constant region (CL); Whole IgG of one HC and one LC; also called anti-CD3; H2L2H2L2; source: Expi293F, transiently expressed, purified (Ab-Capcher MAG2, MonoSpin ProA or MonoSpin ProG); copies: 2 + 2) VH: QVQLQQSGAELARPGASVKMSCKASGYTFTSYTMHWVKQRPGQGLEWIGYINPSSGYTKYNQKFKDKATLTADKSSSTAYMQLSSLTSEDSAVYYCARWQDYDVYFDYWGQGTTLTVSS VL: QIVLSQSPAILSASPGEKVTMTCRASSSVSYMHWYQQKPGSSPKPWIYATSNLASGVPARFSGSGSGTSYSLTISRVEAEDAATYYCQQWSSNPPTFGGGTKLETK",16.7
4,"m12F6 mIgG1, homodimeric antibody without FAST-Ig mutations (antibody, V domains shown, VH of the original mouse antibody m12F6; mouse IgG1 (mIgG1) heavy chain constant region; numbers count on: Eu numbering; VL of the original mouse antibody m12F6; mouse kappa light chain constant region (CL); Whole IgG of one HC and one LC; also called anti-CD3; H2L2H2L2; source: Expi293F, transiently expressed, purified (Ab-Capcher MAG2 or MonoSpin ProG); copies: 2 + 2) VH: QVQLQQSGAELARPGASVKMSCKASGYTFTSYTMHWVKQRPGQGLEWIGYINPSSGYTKYNQKFKDKATLTADKSSSTAYMQLSSLTSEDSAVYYCARWQDYDVYFDYWGQGTTLTVSS VL: QIVLSQSPAILSASPGEKVTMTCRASSSVSYMHWYQQKPGSSPKPWIYATSNLASGVPARFSGSGSGTSYSLTISRVEAEDAATYYCQQWSSNPPTFGGGTKLETK",16.8
5,"mOKT3 mIgG1 V1+C19, homodimeric antibody with FAST-Ig V1+C19 mutations (antibody, V domains shown, VH of mOKT3; mouse IgG1 (mIgG1) heavy chain constant region; numbers count on: Eu numbering; VL of mOKT3; mouse kappa light chain constant region (CL); numbers count on: Kabat numbering; Whole IgG of one HC and one LC; also called anti-CD3; H2L2H2L2; source: Expi293F, transiently expressed, purified (Ab-Capcher MAG2 or MonoSpin ProG); copies: 2 + 2) VH: not shown VL: QIVLTQSPAIMSASPGEKVTMTCSASSSVSYMNWYQKKSGTSPKRWIYDTSKLASGVPAHFRGSGSGTSYSLTISGMEAEDAATYYCQQWSSNPFTFGSGTKLEIN",4.48
6,"mHIT3a mIgG1, homodimeric antibody without FAST-Ig mutations (antibody, V domains shown, VH of the original mouse antibody mHIT3a; mouse IgG1 (mIgG1) heavy chain constant region; numbers count on: Eu numbering; VL of the original mouse antibody mHIT3a; mouse kappa light chain constant region (CL); Whole IgG of one HC and one LC; also called anti-CD3; H2L2H2L2; source: Expi293F, transiently expressed, purified (Ab-Capcher MAG2 or MonoSpin ProG); copies: 2 + 2) VH: QVQLQESGAELARPGASVKMSCKASGYTFTRYTMHWVKQRPGQGLEWIGYINPSRGYTNYNQKFKDKATLTTDKSSSTAYMELTRLTSEDSAVYYCARYYDDHYCLDYWGQGTTVTVSS VL: DIELTQSPAIMSASPGEKVTMTCSASSSVSYMNWYQQKSGTSPKRWIYDTSKLASGVPARFSGSGSGTSYSLTISGMEAEDAATYYCQQWSSNPFTFGSGTKLELK",7.54
7,"mOKT3 mIgG2a V1+C19, homodimeric antibody with FAST-Ig V1+C19 mutations (antibody, V domains shown, VH of mOKT3; mouse IgG2a (mIgG2a) heavy chain constant region; numbers count on: Eu numbering; VL of mOKT3; mouse kappa light chain constant region (CL); numbers count on: Kabat numbering; Whole IgG of one HC and one LC; also called anti-CD3; H2L2H2L2; source: Expi293F, transiently expressed, purified (Ab-Capcher MAG2, MonoSpin ProA or MonoSpin ProG); copies: 2 + 2) VH: not shown VL: QIVLTQSPAIMSASPGEKVTMTCSASSSVSYMNWYQKKSGTSPKRWIYDTSKLASGVPAHFRGSGSGTSYSLTISGMEAEDAATYYCQQWSSNPFTFGSGTKLEIN",7.68
8,"mHIT3a mIgG1 V1+C19, homodimeric antibody with FAST-Ig V1+C19 mutations (antibody, V domains shown, VH of mHIT3a; mouse IgG1 (mIgG1) heavy chain constant region; numbers count on: Eu numbering; VL of mHIT3a; mouse kappa light chain constant region (CL); numbers count on: Kabat numbering; Whole IgG of one HC and one LC; also called anti-CD3; H2L2H2L2; source: Expi293F, transiently expressed, purified (Ab-Capcher MAG2 or MonoSpin ProG); copies: 2 + 2) VH: QVQLQESGAELARPGASVKMSCKASGYTFTRYTMHWVKERPGQGLEWIGYINPSRGYTNYNQKFKDKATLTTDKSSSTAYMELTRLTSEDSAVYYCARYYDDHYCLDYWGQGTTVTVSS VL: DIELTQSPAIMSASPGEKVTMTCSASSSVSYMNWYQKKSGTSPKRWIYDTSKLASGVPARFSGSGSGTSYSLTISGMEAEDAATYYCQQWSSNPFTFGSGTKLELK",8.32
